Measured values taken from patent US20170015742A1 (published 2017).

How the values were obtained:
Human VEGF-A 165 = molecular target: T1, Human VEGF-A 165 (human, UniProt P15692 207-395); test: SPR (Biacore), method of Example 1.1
T1 construct: also called hVEGF165
Experimental: (§1) Unreacted moieties on the biosensor surface were blocked with ethanolamine. For kinetic analysis, rate equations derived from the 1:1 Langmuir binding model were fitted simultaneously to multiple antigen injections (using global fit analysis) with the use of Scrubber 2 (BioLogic Software), Biacore Biaevaluation 4.0.1 software or Biacore T100 Evaluation software. Purified antibodies or DVD-Ig molecules were diluted in running buffer for capture across goat anti-human Fc reaction surfaces. Antibodies or DVD-Ig molecules to be captured as a ligand (1 μg/ml) were injected over reaction matrices at a flow rate of 10 μl/minute. During the assay, all measurements were referenced against the capture surface alone (i.e., with no captured antibody or DVD-Ig molecule). […] The equilibrium dissociation constant KD (M) of the reaction between antibodies and the target antigen was then calculated from the kinetic rate constants by the following formula: KD=Koff/Kₒₙ. Binding was recorded as a function of time and kinetic rate constants were calculated. In this assay, on-rates as fast as 10⁶M⁻¹s⁻¹ and off-rates as slow as 10⁻⁶ s⁻¹ could be measured.

Human PDGF-BB = molecular target: T2, Human PDGF-BB (human, UniProt P01127 82-190); test: SPR (Biacore), method of Example 1.1
T2 construct: also called hPDGF-BB
Experimental: as §1

VEGF-A = VEGF-A (UniProt P15692-4 27-191, limits assumed); test: SPR (Biacore), DVD-Ig captured by anti-human Fc, antigen injected
Experimental: as §1, with “For example, approximately 9000 RU of goat anti-human Fc specific polyclonal antibody (Thermo Fisher Scientific Inc., Rockford, Ill.) diluted in 10 mM sodium acetate (pH 4.5) is directly immobilized across a CM5 research grade biosensor chip using a standard amine coupling kit according to manufacturer's instructions and procedures at 25 μg/ml. Unreacted” for “Unreacted”, “calculated.” for “calculated. In this assay, on-rates as fast as 10⁶M⁻¹s⁻¹ and off-rates as slow as 10⁻⁶ s⁻¹ could be measured.”

PDGF-BB = PDGF-BB (UniProt P01127 82-190); test: as above
Experimental: as §1, with “For example, approximately 9000 RU of goat anti-human Fc specific polyclonal antibody (Thermo Fisher Scientific Inc., Rockford, Ill.) diluted in 10 mM sodium acetate (pH 4.5) is directly immobilized across a CM5 research grade biosensor chip using a standard amine coupling kit according to manufacturer's instructions and procedures at 25 μg/ml. Unreacted” for “Unreacted”, “calculated.” for “calculated. In this assay, on-rates as fast as 10⁶M⁻¹s⁻¹ and off-rates as slow as 10⁻⁶ s⁻¹ could be measured.”

T1 sequence (P15692 other isoform, or with tags, fused parts or gaps limits assumed): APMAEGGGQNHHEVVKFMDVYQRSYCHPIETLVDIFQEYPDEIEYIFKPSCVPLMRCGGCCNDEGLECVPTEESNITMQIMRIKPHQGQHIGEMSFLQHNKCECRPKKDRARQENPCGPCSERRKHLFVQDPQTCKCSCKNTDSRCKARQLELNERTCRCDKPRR
T2 sequence (P01127 82-190 limits assumed): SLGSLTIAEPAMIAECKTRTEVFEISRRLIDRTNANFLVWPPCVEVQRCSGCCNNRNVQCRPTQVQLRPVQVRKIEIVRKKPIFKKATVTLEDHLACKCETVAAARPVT
Sequence of VEGF-A (P15692 other isoform, or with tags, fused parts or gaps limits assumed): as the sequence (P15692 other isoform, or with tags, fused parts or gaps limits assumed) above
Sequence of PDGF-BB (P01127 82-190): as the sequence (P01127 82-190 limits assumed) above

Kd (Human VEGF-A 165) [pM]	kon (Human VEGF-A 165) [M⁻¹ s⁻¹]	Kd (Human PDGF-BB) [pM]	kon (Human PDGF-BB) [M⁻¹ s⁻¹]	Kd (VEGF-A) [pM]	kon (VEGF-A) [M⁻¹ s⁻¹]	Kd (PDGF-BB) [pM]	kon (PDGF-BB) [M⁻¹ s⁻¹]	Binder
50	2.9e+06	4.4	3.9e+07					CODV019 (bispecific antibody, human IgG1, kappa, L234A L235A, Anti-human VEGF-A/anti-human PDGF-BB cross-over DVD-Ig (CO-DVD-Ig); also called PR-1571832) heavy: DTVLTQSPATLSLSPGERATLSCRASESVSTHMHWYQQKPGQAPRLLIYGASNLESGVPARFSGSGSGTDFTLTISSLEPEDFAVYFCQQSWNDPFTFGQGTKLEIKGGGSGGGGEVTLRESGPALVKPTQTLTLTCTFSGFSLSTYGMGVGWIRQPPGKALEWLANIWWDDDKYYNPSLKNRLTISKDTSKNQVVLTMTNMDPVDTATYYCARIESIGTTYSFDYWGQGTMVTVSSLGGCGGGSASTKGPSVFPLAPSSKSTSGGTAALGCLVKDYFPEPVTVSWNSGALTSGVHTFPAVLQSSGLYSLSSVVTVPSSSLGTQTYICNVNHKPSNTKVDKKVEPKSCDKTHTCPPCPAPEAAGGPSVFLFPPKPKDTLMISRTPEVTCVVVDVSHEDPEVKFNWYVDGVEVHNAKTKPREEQYNSTYRVVSVLTVLHQDWLNGKEYKCKVSNKALPAPIEKTISKAKGQPREPQVYTLPPSREEMTKNQVSLTCLVKGFYPSDIAVEWESNGQPENNYKTTPPVLDSDGSFFLYSKLTVDKSRWQQGNVFSCSVMHEALHNAYTQKSLSLSPGK light: EFVLTQSPGTLSLSPGERATLSCERSSGDIGDSYVSWYQQKPGQAPRLVIYADDQRPSGIPDRFSGSGSGTDFTLTISRLEPEDFAVYYCQSYDINIDIVFGGGTKVEIKGGGSGGGGEVQLVQSGSELKKPGASVKVSCKASGYTFTNYGMYWVRQAPGQGLEWMGWINTETGKPTYADDFKGRFVFSLDTSVSTAYLQISSLKAEDTAVYYCARTNYYYRSYIFYFDYWGQGTMVTVSSLGGCGGGSRTVAAPSVFIFPPSDEQLKSGTASVVCLLNNFYPREAKVQWKVDNALQSGNSQESVTEQDSKDSTYSLSSTLTLSKADYEKHKVYACEVTHQGLSSPVTKSFNRGEC
31000		5.3	3.5e+07					CODV018 (bispecific antibody, human IgG1, kappa, L234A L235A, Anti-human VEGF-A/anti-human PDGF-BB cross-over DVD-Ig (CO-DVD-Ig); also called PR-1571831) heavy: EFVLTQSPGTLSLSPGERATLSCERSSGDIGDSYVSWYQQKPGQAPRLVIYADDQRPSGIPDRFSGSGSGTDFTLTISRLEPEDFAVYYCQSYDINIDIVFGGGTKVEIKGGGSGGGDTVLTQSPATLSLSPGERATLSCRASESVSTHMHWYQQKPGQAPRLLIYGASNLESGVPARFSGSGSGTDFTLTISSLEPEDFAVYFCQQSWNDPFTFGQGTKLEIKGGGSGASTKGPSVFPLAPSSKSTSGGTAALGCLVKDYFPEPVTVSWNSGALTSGVHTFPAVLQSSGLYSLSSVVTVPSSSLGTQTYICNVNHKPSNTKVDKKVEPKSCDKTHTCPPCPAPEAAGGPSVFLFPPKPKDTLMISRTPEVTCVVVDVSHEDPEVKFNWYVDGVEVHNAKTKPREEQYNSTYRVVSVLTVLHQDWLNGKEYKCKVSNKALPAPIEKTISKAKGQPREPQVYTLPPSREEMTKNQVSLTCLVKGFYPSDIAVEWESNGQPENNYKTTPPVLDSDGSFFLYSKLTVDKSRWQQGNVFSCSVMHEALHNAYTQKSLSLSPGK light: EVQLVQSGSELKKPGASVKVSCKASGYTFTNYGMYWVRQAPGQGLEWMGWINTETGKPTYADDFKGRFVFSLDTSVSTAYLQISSLKAEDTAVYYCARTNYYYRSYIFYFDYWGQGTMVTVSSGEVTLRESGPALVKPTQTLTLTCTFSGFSLSTYGMGVGWIRQPPGKALEWLANIWWDDDKYYNPSLKNRLTISKDTSKNQVVLTMTNMDPVDTATYYCARIESIGTTYSFDYWGQGTMVTVSSGGRTVAAPSVFIFPPSDEQLKSGTASVVCLLNNFYPREAKVQWKVDNALQSGNSQESVTEQDSKDSTYSLSSTLTLSKADYEKHKVYACEVTHQGLSSPVTKSFNRGEC
				1.8	9.7e+06	0.45	2e+07	9E10.1_GS_CL-33675 (PR-1610561) (bispecific antibody, human IgG1, kappa, L234A L235A, DVD-Ig: outer hBEW-9E10.1 (VEGF), inner CL-33675 (PDGF), linkers GS-H10 / GS-L10(dR); Human IgG1 L234A, L235A, H435A with kappa light chain; also called 9E10.1-GS-33675; hu VEGF 9E10.1-GS-hu PDGF 33675 [hu IgG1/k]; LALA H435A) heavy: EIQLVQSGSELKKPGASVKVSCKASGYTFTNYGMYWVKQAPGQGLEYMGWIDTETGRPTYADDFKGRFVFSLDTSVSTAYLQISSLKAEDTAVYFCARWSGDTTGIRGPWFAYWGQGTLVTVSSGGGGSGGGGSEVTLRESGPALVKPTQTLTLTCTFSGFSLSTYGMGVGWIRQPPGKALEWLANIWWDDDKYYNPSLKNRLTISKDTSKNQVVLTMTNMDPVDTATYYCARIESSGPKYSFDYWGQGTMVTVSSASTKGPSVFPLAPSSKSTSGGTAALGCLVKDYFPEPVTVSWNSGALTSGVHTFPAVLQSSGLYSLSSVVTVPSSSLGTQTYICNVNHKPSNTKVDKKVEPKSCDKTHTCPPCPAPEAAGGPSVFLFPPKPKDTLMISRTPEVTCVVVDVSHEDPEVKFNWYVDGVEVHNAKTKPREEQYNSTYRVVSVLTVLHQDWLNGKEYKCKVSNKALPAPIEKTISKAKGQPREPQVYTLPPSREEMTKNQVSLTCLVKGFYPSDIAVEWESNGQPENNYKTTPPVLDSDGSFFLYSKLTVDKSRWQQGNVFSCSVMHEALHNAYTQKSLSLSPGK light: DIRMTQSPSSLSASVGDRVTIECLASEDIYSDLAWYQQKPGKSPKLLIYNANGLQNGVPSRFSGSGSGTDYSLTISSLQPEDVATYFCQQYNYFPGTFGQGTKLEIKGGSGGGGSGGEIVLTQSPGTLSLSPGERATLSCRASSGSIWYSFVSWYQQKPGQAPRLLIYADDQRASGIPDRFSGSGSGTDFTLTISRLEPEDFAVYYCQSYGINIDVVFGGGTKVEIKRTVAAPSVFIFPPSDEQLKSGTASVVCLLNNFYPREAKVQWKVDNALQSGNSQESVTEQDSKDSTYSLSSTLTLSKADYEKHKVYACEVTHQGLSSPVTKSFNRGEC
33	3.1e+06	3.5	4.6e+07					CODV020 (bispecific antibody, human IgG1, kappa, L234A L235A, Anti-human VEGF-A/anti-human PDGF-BB cross-over DVD-Ig (CO-DVD-Ig); also called PR-1571836) heavy: EFVLTQSPGTLSLSPGERATLSCERSSGDIGDSYVSWYQQKPGQAPRLVIYADDQRPSGIPDRFSGSGSGTDFTLTISRLEPEDFAVYYCQSYDINIDIVFGGGTKVEIKGGGSGGGGEVQLVQSGSELKKPGASVKVSCKASGYTFTNYGMYWVRQAPGQGLEWMGWINTETGKPTYADDFKGRFVFSLDTSVSTAYLQISSLKAEDTAVYYCARTNYYYRSYIFYFDYWGQGTMVTVSSLGGCGGGSASTKGPSVFPLAPSSKSTSGGTAALGCLVKDYFPEPVTVSWNSGALTSGVHTFPAVLQSSGLYSLSSVVTVPSSSLGTQTYICNVNHKPSNTKVDKKVEPKSCDKTHTCPPCPAPEAAGGPSVFLFPPKPKDTLMISRTPEVTCVVVDVSHEDPEVKFNWYVDGVEVHNAKTKPREEQYNSTYRVVSVLTVLHQDWLNGKEYKCKVSNKALPAPIEKTISKAKGQPREPQVYTLPPSREEMTKNQVSLTCLVKGFYPSDIAVEWESNGQPENNYKTTPPVLDSDGSFFLYSKLTVDKSRWQQGNVFSCSVMHEALHNAYTQKSLSLSPGK light: DTVLTQSPATLSLSPGERATLSCRASESVSTHMHWYQQKPGQAPRLLIYGASNLESGVPARFSGSGSGTDFTLTISSLEPEDFAVYFCQQSWNDPFTFGQGTKLEIKGGGSGGGGEVTLRESGPALVKPTQTLTLTCTFSGFSLSTYGMGVGWIRQPPGKALEWLANIWWDDDKYYNPSLKNRLTISKDTSKNQVVLTMTNMDPVDTATYYCARIESIGTTYSFDYWGQGTMVTVSSLGGCGGGSRTVAAPSVFIFPPSDEQLKSGTASVVCLLNNFYPREAKVQWKVDNALQSGNSQESVTEQDSKDSTYSLSSTLTLSKADYEKHKVYACEVTHQGLSSPVTKSFNRGEC
57000		6.5	3e+07					CODV017 (bispecific antibody, human IgG1, kappa, L234A L235A, Anti-human VEGF-A/anti-human PDGF-BB cross-over DVD-Ig (CO-DVD-Ig); also called PR-1571830) heavy: DTVLTQSPATLSLSPGERATLSCRASESVSTHMHWYQQKPGQAPRLLIYGASNLESGVPARFSGSGSGTDFTLTISSLEPEDFAVYFCQQSWNDPFTFGQGTKLEIKGGGSGGGEFVLTQSPGTLSLSPGERATLSCERSSGDIGDSYVSWYQQKPGQAPRLVIYADDQRPSGIPDRFSGSGSGTDFTLTISRLEPEDFAVYYCQSYDINIDIVFGGGTKVEIKGGGSGASTKGPSVFPLAPSSKSTSGGTAALGCLVKDYFPEPVTVSWNSGALTSGVHTFPAVLQSSGLYSLSSVVTVPSSSLGTQTYICNVNHKPSNTKVDKKVEPKSCDKTHTCPPCPAPEAAGGPSVFLFPPKPKDTLMISRTPEVTCVVVDVSHEDPEVKFNWYVDGVEVHNAKTKPREEQYNSTYRVVSVLTVLHQDWLNGKEYKCKVSNKALPAPIEKTISKAKGQPREPQVYTLPPSREEMTKNQVSLTCLVKGFYPSDIAVEWESNGQPENNYKTTPPVLDSDGSFFLYSKLTVDKSRWQQGNVFSCSVMHEALHNAYTQKSLSLSPGK light: EVTLRESGPALVKPTQTLTLTCTFSGFSLSTYGMGVGWIRQPPGKALEWLANIWWDDDKYYNPSLKNRLTISKDTSKNQVVLTMTNMDPVDTATYYCARIESIGTTYSFDYWGQGTMVTVSSGEVQLVQSGSELKKPGASVKVSCKASGYTFTNYGMYWVRQAPGQGLEWMGWINTETGKPTYADDFKGRFVFSLDTSVSTAYLQISSLKAEDTAVYYCARTNYYYRSYIFYFDYWGQGTMVTVSSGGRTVAAPSVFIFPPSDEQLKSGTASVVCLLNNFYPREAKVQWKVDNALQSGNSQESVTEQDSKDSTYSLSSTLTLSKADYEKHKVYACEVTHQGLSSPVTKSFNRGEC
